The test deals with T1, GST-CK1δ (human, UniProt P48730-2 1-409).
T1 sequence: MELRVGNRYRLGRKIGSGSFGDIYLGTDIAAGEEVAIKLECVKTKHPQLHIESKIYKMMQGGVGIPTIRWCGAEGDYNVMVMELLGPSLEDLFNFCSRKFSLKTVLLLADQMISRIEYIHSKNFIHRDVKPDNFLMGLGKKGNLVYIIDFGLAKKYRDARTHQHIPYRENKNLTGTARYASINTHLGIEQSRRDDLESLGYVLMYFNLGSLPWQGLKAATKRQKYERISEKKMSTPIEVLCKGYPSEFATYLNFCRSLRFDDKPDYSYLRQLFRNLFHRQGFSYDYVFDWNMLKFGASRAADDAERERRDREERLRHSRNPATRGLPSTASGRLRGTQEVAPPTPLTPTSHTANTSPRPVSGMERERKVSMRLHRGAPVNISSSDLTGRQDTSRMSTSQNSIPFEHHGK
Description: pull-down.

B1: His-USP46 (enzyme)
chain: MTVRNIASICNMGTNASALEKDIGPEQFPINEHYFGLVNFGNTCYCNSVLQALYFCRPFRENVLAYKAQQKKKENLLTCLADLFHSIATQKKKVGVIPPKKFISRLRKENDLFDNYMQQDAHEFLNYLLNTIADILQEEKKQEKQNGKLKNGNMNEPAENNKPELTWVHEIFQGTLTNETRCLNCETVSSKDEDFLDLSVDVEQNTSITHCLRDFSNTETLCSEQKYYCETCCSKQEAQKRMRVKKLPMILALHLKRFKYMEQLHRYTKLSYRVVFPLELRLFNTSSDAVNLDRMYDLVAVVVHCGSGPNRGHYITIVKSHGFWLLFDDDIVEKIDAQAIEEFYGLTSDISKNSESGYILFYQSRE
Consider B1, for which the binding result is given as “binds”.

Values taken from paper PMC11582648 (Nature Communications, 2024).
